Among the data in patent US20150064134A1 are % activity values, retold here.

Among the targets are Abl(M351T)(h) (human) (UniProt P00519); Abl(h) (human) (UniProt P00519); DYRK2(h) (human) (UniProt Q92630); EphA2(h) (human) (UniProt P29317); EphB4(h) (human) (UniProt P54760); Hck(h) (human) (UniProt P08631); MKK7β(h) (human) (UniProt O14733); STK33(h) (human) (UniProt Q9BYT3); cKit(D816H)(h) (human) (UniProt P10721); EGFR(L858R)(h) (human) (UniProt P00533); FGFR3(h) (human) (UniProt P22607); Met(Y1248D)(h) (human) (UniProt P08581); PDGFRα(D842V)(h) (human) (UniProt P16234); Snk(h) (human) (UniProt Q9NYY3).

Assay in all cases: cell-based or functional assay
For the next assay, the target named is T1, ARK5(h) (human) (UniProt O60285).
T1 sequence (looked up): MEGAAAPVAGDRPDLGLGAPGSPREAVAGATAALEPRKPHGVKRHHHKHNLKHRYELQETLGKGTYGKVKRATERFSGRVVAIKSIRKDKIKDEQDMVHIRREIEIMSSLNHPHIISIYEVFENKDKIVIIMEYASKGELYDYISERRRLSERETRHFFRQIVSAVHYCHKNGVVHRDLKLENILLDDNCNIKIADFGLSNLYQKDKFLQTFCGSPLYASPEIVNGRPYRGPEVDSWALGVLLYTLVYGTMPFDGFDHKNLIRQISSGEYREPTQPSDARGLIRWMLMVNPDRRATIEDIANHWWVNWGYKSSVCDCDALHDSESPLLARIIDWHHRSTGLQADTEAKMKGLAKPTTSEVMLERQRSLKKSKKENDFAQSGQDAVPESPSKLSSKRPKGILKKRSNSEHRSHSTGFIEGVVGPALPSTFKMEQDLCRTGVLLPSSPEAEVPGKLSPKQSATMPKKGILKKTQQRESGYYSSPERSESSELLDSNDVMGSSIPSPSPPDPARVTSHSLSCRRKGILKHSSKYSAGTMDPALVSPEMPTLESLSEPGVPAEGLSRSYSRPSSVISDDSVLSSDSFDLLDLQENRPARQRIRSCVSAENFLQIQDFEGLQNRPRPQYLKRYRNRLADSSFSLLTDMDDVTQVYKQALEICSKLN

The target of the next assay is T2, Aurora-A(h) (human) (UniProt O14965).
T2 sequence (looked up): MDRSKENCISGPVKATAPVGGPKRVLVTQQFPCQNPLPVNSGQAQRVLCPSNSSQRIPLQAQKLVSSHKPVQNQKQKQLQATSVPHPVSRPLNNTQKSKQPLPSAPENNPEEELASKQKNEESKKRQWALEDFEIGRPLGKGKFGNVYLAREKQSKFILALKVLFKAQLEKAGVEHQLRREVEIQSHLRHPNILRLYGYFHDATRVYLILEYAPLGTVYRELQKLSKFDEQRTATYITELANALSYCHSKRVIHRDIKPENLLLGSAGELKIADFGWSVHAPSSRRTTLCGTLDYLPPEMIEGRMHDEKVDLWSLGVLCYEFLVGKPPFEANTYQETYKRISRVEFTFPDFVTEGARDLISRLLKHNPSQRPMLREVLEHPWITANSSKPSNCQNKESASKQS

Another assay deals with T3, TAK1(h) (human) (UniProt O43318).
T3 sequence (looked up): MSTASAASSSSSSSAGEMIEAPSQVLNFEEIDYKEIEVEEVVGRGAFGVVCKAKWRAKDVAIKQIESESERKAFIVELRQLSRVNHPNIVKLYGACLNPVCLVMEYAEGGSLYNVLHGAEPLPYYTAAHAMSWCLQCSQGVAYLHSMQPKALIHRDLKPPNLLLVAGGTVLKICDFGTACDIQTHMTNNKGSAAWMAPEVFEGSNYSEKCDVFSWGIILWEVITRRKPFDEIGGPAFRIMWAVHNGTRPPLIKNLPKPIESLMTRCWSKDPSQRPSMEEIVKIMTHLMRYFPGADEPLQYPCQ

The target of the next assay is T4, Bmx(h) (human) (UniProt P51813).
T4 sequence (looked up): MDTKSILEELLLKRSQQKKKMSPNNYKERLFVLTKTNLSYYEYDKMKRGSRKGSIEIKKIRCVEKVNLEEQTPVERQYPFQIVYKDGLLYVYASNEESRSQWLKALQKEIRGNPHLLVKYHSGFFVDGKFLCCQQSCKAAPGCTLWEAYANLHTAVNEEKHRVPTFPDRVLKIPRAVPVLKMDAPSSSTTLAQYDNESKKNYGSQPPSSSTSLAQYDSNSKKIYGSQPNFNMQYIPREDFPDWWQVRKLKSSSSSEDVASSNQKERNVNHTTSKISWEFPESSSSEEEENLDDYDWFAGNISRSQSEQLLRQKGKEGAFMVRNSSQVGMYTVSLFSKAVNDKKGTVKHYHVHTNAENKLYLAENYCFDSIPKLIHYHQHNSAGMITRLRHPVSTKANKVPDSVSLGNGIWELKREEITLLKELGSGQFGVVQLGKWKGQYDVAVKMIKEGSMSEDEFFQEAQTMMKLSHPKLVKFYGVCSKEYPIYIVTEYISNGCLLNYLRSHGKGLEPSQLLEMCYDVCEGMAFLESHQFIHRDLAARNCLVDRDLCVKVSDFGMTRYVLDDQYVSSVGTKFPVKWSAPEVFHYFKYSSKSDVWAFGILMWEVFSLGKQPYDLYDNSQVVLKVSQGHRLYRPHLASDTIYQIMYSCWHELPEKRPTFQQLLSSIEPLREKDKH

cKit(D816H)(h) (human), sequence (P10721 544-976 D816H): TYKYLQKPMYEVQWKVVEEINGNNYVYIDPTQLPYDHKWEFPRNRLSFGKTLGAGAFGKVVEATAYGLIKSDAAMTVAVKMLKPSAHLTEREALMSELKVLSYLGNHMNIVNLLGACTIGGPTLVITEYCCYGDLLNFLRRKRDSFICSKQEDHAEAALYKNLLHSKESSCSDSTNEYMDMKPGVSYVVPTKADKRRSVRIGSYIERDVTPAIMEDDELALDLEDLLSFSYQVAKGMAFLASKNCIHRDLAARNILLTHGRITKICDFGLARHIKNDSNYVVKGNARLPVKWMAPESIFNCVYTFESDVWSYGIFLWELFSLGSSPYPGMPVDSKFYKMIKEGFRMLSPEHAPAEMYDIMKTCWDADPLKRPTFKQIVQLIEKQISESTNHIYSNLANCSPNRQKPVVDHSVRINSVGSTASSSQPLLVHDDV
Abl(h) (human), sequence (P00519 27-1130 limits assumed): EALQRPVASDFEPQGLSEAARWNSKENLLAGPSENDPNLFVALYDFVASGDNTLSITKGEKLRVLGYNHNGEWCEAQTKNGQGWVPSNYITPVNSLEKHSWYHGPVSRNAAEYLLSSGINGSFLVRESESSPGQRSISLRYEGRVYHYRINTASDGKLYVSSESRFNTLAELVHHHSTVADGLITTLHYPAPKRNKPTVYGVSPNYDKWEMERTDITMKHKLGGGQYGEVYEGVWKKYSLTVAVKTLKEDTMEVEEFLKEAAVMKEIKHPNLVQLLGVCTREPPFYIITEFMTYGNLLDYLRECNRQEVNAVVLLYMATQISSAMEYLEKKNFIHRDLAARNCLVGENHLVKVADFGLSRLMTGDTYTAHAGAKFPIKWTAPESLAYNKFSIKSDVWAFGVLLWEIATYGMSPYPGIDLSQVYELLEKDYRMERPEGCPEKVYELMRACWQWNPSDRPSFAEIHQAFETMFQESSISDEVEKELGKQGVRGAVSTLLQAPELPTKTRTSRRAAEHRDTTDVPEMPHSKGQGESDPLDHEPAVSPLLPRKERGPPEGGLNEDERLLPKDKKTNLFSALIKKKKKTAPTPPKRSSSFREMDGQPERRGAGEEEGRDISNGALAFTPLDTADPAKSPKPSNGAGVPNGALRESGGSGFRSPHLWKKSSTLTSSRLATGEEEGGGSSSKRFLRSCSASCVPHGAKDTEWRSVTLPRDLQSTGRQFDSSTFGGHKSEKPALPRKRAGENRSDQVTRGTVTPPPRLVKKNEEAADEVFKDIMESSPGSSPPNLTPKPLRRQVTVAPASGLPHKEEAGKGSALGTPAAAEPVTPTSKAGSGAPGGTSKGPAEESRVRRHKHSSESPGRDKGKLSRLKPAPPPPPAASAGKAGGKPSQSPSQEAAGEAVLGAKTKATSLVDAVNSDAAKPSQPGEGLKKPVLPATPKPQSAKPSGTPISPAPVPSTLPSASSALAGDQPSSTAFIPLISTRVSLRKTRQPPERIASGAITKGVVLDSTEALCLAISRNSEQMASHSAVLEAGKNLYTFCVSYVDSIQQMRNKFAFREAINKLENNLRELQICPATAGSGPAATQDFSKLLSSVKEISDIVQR
EphB4(h) (human), sequence (P54760 561-987 limits assumed): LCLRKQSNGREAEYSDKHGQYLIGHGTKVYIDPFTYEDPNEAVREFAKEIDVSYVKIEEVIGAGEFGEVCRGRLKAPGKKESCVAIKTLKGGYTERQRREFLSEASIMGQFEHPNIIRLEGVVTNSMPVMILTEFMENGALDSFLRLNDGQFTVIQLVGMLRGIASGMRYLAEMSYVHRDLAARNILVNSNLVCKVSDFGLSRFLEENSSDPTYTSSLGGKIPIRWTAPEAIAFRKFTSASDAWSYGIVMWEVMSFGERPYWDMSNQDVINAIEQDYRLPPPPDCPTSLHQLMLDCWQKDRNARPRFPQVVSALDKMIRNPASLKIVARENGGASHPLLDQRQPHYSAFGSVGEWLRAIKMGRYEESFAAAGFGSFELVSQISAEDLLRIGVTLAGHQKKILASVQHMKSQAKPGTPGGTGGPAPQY
MKK7β(h) (human), sequence (O14733 whole entry): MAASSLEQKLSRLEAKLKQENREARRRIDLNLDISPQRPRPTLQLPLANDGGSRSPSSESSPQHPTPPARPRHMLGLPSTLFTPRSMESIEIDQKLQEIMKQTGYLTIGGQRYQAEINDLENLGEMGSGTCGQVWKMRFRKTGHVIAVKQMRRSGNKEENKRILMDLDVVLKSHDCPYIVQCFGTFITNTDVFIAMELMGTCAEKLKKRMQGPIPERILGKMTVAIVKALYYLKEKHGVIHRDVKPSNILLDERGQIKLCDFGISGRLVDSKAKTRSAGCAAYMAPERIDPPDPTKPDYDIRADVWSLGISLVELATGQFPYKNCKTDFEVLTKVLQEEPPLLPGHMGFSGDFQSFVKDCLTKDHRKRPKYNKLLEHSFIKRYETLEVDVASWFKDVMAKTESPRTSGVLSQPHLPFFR
PDGFRα(D842V)(h) (human), sequence (P16234 550-1089 D842V limits assumed): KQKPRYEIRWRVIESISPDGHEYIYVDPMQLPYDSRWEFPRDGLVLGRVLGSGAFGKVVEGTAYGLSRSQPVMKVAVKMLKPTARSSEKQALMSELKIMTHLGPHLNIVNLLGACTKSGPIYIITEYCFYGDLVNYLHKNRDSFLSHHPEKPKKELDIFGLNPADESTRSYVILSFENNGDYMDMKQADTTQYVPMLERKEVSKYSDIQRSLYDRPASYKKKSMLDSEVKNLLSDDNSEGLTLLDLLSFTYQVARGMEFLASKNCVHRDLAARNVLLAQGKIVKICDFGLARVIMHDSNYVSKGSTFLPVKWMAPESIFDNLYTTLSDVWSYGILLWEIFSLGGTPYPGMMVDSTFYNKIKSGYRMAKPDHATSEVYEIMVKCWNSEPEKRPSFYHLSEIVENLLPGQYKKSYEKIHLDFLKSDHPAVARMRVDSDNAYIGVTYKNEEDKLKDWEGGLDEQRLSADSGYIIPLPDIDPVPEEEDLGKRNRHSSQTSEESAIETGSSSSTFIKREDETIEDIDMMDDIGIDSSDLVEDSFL
Abl(M351T)(h) (human), sequence (P00519 27-1130 M351T limits assumed): as the sequence (P00519 27-1130 limits assumed) above, with M325T counted along it
EphA2(h) (human), sequence (P29317 559-976 limits assumed): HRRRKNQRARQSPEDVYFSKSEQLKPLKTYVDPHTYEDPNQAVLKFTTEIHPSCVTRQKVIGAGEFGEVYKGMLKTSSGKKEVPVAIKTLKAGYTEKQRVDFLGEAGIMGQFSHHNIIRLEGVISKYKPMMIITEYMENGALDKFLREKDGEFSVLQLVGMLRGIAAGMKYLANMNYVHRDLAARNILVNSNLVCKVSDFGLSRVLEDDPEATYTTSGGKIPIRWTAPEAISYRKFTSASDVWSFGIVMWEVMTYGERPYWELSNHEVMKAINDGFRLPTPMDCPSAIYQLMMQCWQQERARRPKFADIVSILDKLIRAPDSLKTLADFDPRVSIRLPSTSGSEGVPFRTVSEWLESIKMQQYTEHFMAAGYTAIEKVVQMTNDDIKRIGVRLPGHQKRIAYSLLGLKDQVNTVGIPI
FGFR3(h) (human), sequence (P22607 448-759 limits assumed): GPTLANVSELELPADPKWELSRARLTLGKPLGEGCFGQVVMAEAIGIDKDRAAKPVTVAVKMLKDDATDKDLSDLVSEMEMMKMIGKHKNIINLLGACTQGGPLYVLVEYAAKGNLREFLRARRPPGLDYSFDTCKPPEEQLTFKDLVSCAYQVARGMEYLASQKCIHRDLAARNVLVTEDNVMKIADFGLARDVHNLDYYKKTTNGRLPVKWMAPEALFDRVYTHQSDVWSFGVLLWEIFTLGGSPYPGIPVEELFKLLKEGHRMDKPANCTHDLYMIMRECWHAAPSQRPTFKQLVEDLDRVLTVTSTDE

For the substance MMI-0300 (peptide), the % activity at 100 µM with ARK5(h) (human) worked out at 78%; with Abl(M351T)(h) (human) it was 90%; in the assay with Abl(h) (human), 69%; with Aurora-A(h) (human), 92%; in the assay with DYRK2(h) (human), 155%; with EphA2(h) (human) it was 31%. Besides, the % activity at 100 µM with EphB4(h) (human) came to 44%; in the assay with Hck(h) (human), 72%; in the assay with MKK7β(h) (human) it was 100%; with STK33(h) (human), 45%; in the assay with TAK1(h) (human) it was 122%; with cKit(D816H)(h) (human), 126%.
As for MMI-0500 (peptide), the % activity at 100 µM with ARK5(h) (human) amounted to 20%; with Abl(M351T)(h) (human), 61%; with Abl(h) (human) it was 16%; with Aurora-A(h) (human) it was 110%; in the assay with Bmx(h) (human), 45%; with DYRK2(h) (human), 127%. Moreover, the % activity at 100 µM with EGFR(L858R)(h) (human) is 26%; with EphB4(h) (human), 38%; with FGFR3(h) (human), 10%; with Hck(h) (human), 78%; with Met(Y1248D)(h) (human), 218%; with PDGFRα(D842V)(h) (human), 170%. Further, the % activity at 100 µM in the assay with STK33(h) (human) came to 16%; with Snk(h) (human), 122%; with cKit(D816H)(h) (human), 194%.
As to MMI-0400 (peptide), the % activity at 100 µM amounted to 69% with ARK5(h) (human); 84% with Abl(h) (human); 26% in the assay with Bmx(h) (human); 195% with DYRK2(h) (human); 52% with EGFR(L858R)(h) (human); 17% with EphA2(h) (human). In addition, the % activity at 100 µM with EphB4(h) (human) worked out at 28%; with FGFR3(h) (human) it was 0%; in the assay with Hck(h) (human), 72%; with MKK7β(h) (human) it was 94%; in the assay with Met(Y1248D)(h) (human) it was 31%; with PDGFRα(D842V)(h) (human), 118%. The % activity at 100 µM in the assay with STK33(h) (human) was 52%; in the assay with Snk(h) (human), 131%; in the assay with TAK1(h) (human) it was 177%; with cKit(D816H)(h) (human), 143%.
